# Results as given in US20140298544A1, “Engineered PEP carboxylase variants for improved plant productivity” (PIONEER HI BRED INTERNATIONAL INC, priority 2011, published 2014).
# Positions count from the first letter of the chain named.
# B1: 3F30-F12: maize C4 PEPC variant, 7 amino acid substitutions, SEQ ID NO: 11 (protein)
# chain: MASTKAPGPGEKHHSIDAQLRQLVPGKVSEDDKLIEYDALLVDRFLNILQDLHGPSLREFVQECYEVSADYEGKGDTTKLGELGAKLTGLAPADAILVASSILHMLNLANLAEEAQIAHRRRNSKLKKGGFADEGSATTESDIEETLKRLVSEVGKSPEEVFEALKNQTVDLVFTAHPTQSARRSLLQKNAGIRNCLTQLNAKDITDGDKQELDEALQREIQAAFRTDEIRRAQPTPQDEMRYGMSYIHETVWKGVPKFLRRVDTALKNIGINERLPYNVSLIRFSSWMGGDRDGNPRVTPEVTRDVCLLARMMAANLYIDQIEELMFELSMWRCNDELRVRAEELHSSSGSKVTKYYIEFWKQIPPNEPYRVILGHVRDKLYNTRERARHLLASGVSEISAESSFTSIEEFLEPLELCYKSLCDCGDKAIADGSLLDLLRQVFTFGLSLVKLDIRQESERHTDVIDAITTHLGIGSYREWSEDKRQEWLLSELRGKRPLLPPDLPQTDEIADVIGAFHVLAELPPDSFGPYIISMATAPSDVLAVELLQRECGIKQPLPVVPLFERLADLQSAPASVERLFSVDWYMDRIKGKQQVMVGYSDSGKDAGRLSAAWQLYKAQEEMAQVAKRYGVKLTLFHGRGGTVGRGGGPTHLAILSQPPDTINGSIRVTVQGEVIEFCFGEEHLCFQTLQRFTAATLEHGMHPPVSPKPEWRKLMDEMAVVATEEYRSVVVKEPRFVEYFRSATPETEYGRMNIGSRPAKRRPGGGITTLRAIPWIFSWTQTRFHLPVWLGVGAAFKFAIDKDVRNFQVLKEMYNEWPFFRVTLDLLEMIFAKGDPGIAGLYDELLVAEELKPFGKQLRDKYVETQQLLLQIAGHKDILEGDPFLKQGLVLRNPYITTLNVFQAYTLKRIRDPNFKVTPQPPLSKEFADENKPAGLVKLNPASEYPPGLEDTLILTMKGIAAGMQNTG
# modifications: shuffled variant
# B2: 3D5-D12: maize C4 PEPC variant, 7 amino acid substitutions, SEQ ID NO: 24 (protein)
# chain: B1 chain with K86R, G208D, S348A, S350A, R495K, I555V, K556R, K619R, R807K, I832V
# modifications: shuffled variant
# B3: 3C9-C9: maize C4 PEPC variant, 8 amino acid substitutions, SEQ ID NO: 22 (protein)
# chain: B1 chain with A115V, H119R, G208D, D321N, S404A, R495K, I832V
# modifications: shuffled variant
# B4: 3C2-H4: maize C4 PEPC variant, 6 amino acid substitutions, SEQ ID NO: 12 (protein)
# chain: B1 chain with A115V, H119R, G208D, S404A, R495K, I555V, K556R, R807K, I832V
# modifications: shuffled variant
# Test system: maize C4 PEPC
# Test: Kinetic and regulatory properties of PEPC variants (expressed in E. coli)
# Format: biochemical
# Conditions: PEP substrate, no activators
# Excerpt: Libraries of modified PEPC polynucleotides were generated using recursive sequence recombination methods (Stemmer, Proc. Natl. Acad. Sci USA 91:10747-10751; Ness, et. al., Nature Biotechnology 20:1251-1255), also known as gene shuffling methods. These libraries incorporated diversity from related PEPC enzymes and also incorporated other designed and random changes. The starting polynucleotide sequence in which the diversity was incorporated was the maize C4 PEPC as shown in SEQ ID NO: 25. Each PEPC variant was expressed in E. coli as a thioredoxin fusion using the pET 32 expression vector (Novagen) with the E. coli expression strain Rosetta gami 2 BL21 DE3 pLYS S. Cultures expressing the variants were grown in 96-well culture blocks, lysed, and then PEPC activity and PEPC protein abundance were determined. The variants with high specific activity were subjected to further rounds of shuffling, for a total of 3 rounds. Examples of nucleotide and amino acid sequences of PEPC variants obtained with this method are SEQ ID NO: 4 to 24.
# Detailed kinetic studies of PEPC variants were done in accordance with methods known in the art. See, for example, Tovar-Mendez et al. (2000) Plant Physiol. 123: 149-160; Tover-Mendez et al. (1998) Biochem. J. 332: 633-642.
# PEPC variants had several improved properties in comparison with wild type PEPC, including greater affinity (lower S0.5 values) with respect to the bicarbonate substrate, greater Kcat/S0.5 values with the bicarbonate or PEP substrates, greater activation (lower A0.5 values) with […] or glycine as activators and greater Ki values with malate as inhibitor.
row,Molecule,"PEP, no activators kcat/S0.5"
1,B1,89.8 s⁻¹ mM⁻¹
2,B2,151 s⁻¹ mM⁻¹
3,B3,79.6 s⁻¹ mM⁻¹
4,B4,64.1 s⁻¹ mM⁻¹

# Same assay, conditions: PEP substrate, no activators; relative to wild type
row,Molecule,"PEP, no activators kcat/S0.5 % wt"
1,B1,263 % wt
2,B2,442 % wt
3,B3,234 % wt
4,B4,188 % wt

# Same assay, conditions: PEP substrate, with activators
row,Molecule,"PEP, with activators kcat/S0.5"
1,B1,4496 s⁻¹ mM⁻¹
2,B2,5551 s⁻¹ mM⁻¹
3,B3,3831 s⁻¹ mM⁻¹
4,B4,3919 s⁻¹ mM⁻¹

# Same assay, conditions: PEP substrate, with activators vs no activators
row,Molecule,kcat/S0.5 Fold incr.
1,B1,50.1 Fold incr.
2,B2,36.9 Fold incr.
3,B3,48.1 Fold incr.
4,B4,61.2 Fold incr.

# Same assay, conditions: PEP substrate, with activators; relative to wild type
row,Molecule,"PEP, with activators kcat/S0.5 % wt"
1,B1,184 % wt
2,B2,227 % wt
3,B3,157 % wt
4,B4,160 % wt

# Same assay, conditions: activator Glc-6-P
row,Molecule,Glc-6-P Vmax Fold incr
1,B1,12.6 Fold incr
2,B2,4.3 Fold incr
3,B3,11.4 Fold incr
4,B4,7.6 Fold incr

# Same assay, conditions: activator Glc-6-P; read-out: Glc-6-P A0.5
row,EC50,Molecule
1,5.11 mM,B1
2,1.88 mM,B2
3,3.85 mM,B3
4,3.02 mM,B4

# Same assay, conditions: activator Glc-6-P; relative to wild type
row,Molecule,Glc-6-P A0.5 % wt
1,B1,75 % wt
2,B2,28 % wt
3,B3,57 % wt
4,B4,44 % wt

# Same assay, conditions: activator glycine
row,Molecule,Glycine Vmax Fold incr
1,B1,11.3 Fold incr
2,B2,4.1 Fold incr
3,B3,11.5 Fold incr
4,B4,10.3 Fold incr

# Same assay, conditions: activator glycine; read-out: Glycine A0.5
row,EC50,Molecule
1,0.7 mM,B1
2,0.32 mM,B2
3,0.76 mM,B3
4,0.56 mM,B4

# Same assay, conditions: activator glycine; relative to wild type
row,Molecule,Glycine A0.5 % wt
1,B1,19 % wt
2,B2,9 % wt
3,B3,21 % wt
4,B4,16 % wt

# Same assay, conditions: bicarbonate substrate
Molecule,HCO3 S0.5,HCO3 kcat/S0.5
B1,0.0248 mM,3481 s⁻¹ mM⁻¹
B2,0.0277 mM,3454 s⁻¹ mM⁻¹
B3,0.021 mM,3606 s⁻¹ mM⁻¹
B4,0.026 mM,3581 s⁻¹ mM⁻¹

# Same assay, conditions: bicarbonate substrate; relative to wild type
row,Molecule,HCO3 kcat/S0.5 % wt
1,B1,164 % wt
2,B2,163 % wt
3,B3,170 % wt
4,B4,169 % wt

# Same assay, conditions: inhibitor malate
row,Molecule,Ki
1,B1,3.3 mM
2,B2,4 mM
3,B3,2 mM
4,B4,1 mM

# Same assay, conditions: inhibitor malate; relative to wild type
row,Molecule,Malate Ki % wt
1,B1,825 % wt
2,B2,1000 % wt
3,B3,500 % wt
4,B4,250 % wt

# Same assay, conditions: relative to wild type
Molecule,"Ki for malate, in words","Vmax, in words","activation by glucose-6-phosphate, in words","activation by glycine, in words"
B1,increased Ki,better Vmax,increased activation,increased activation
B4,increased Ki,better Vmax,increased activation,increased activation
